# Source: publication PMC6128611, “The molecular structure of Schistosoma mansoni PNP isoform 2 provides insights into the nucleoside selectivity of PNPs” (PLoS ONE, 2018)
# T1: SmPNP2 (purine nucleoside phosphorylase isoform 2) (Schistosoma mansoni, UniProt A0A0U3AGT1)
# T1 construct: ORF of 287 amino acids, 6His-SUMO tag cleaved
# T1 sequence (A0A0U3AGT1 1-287): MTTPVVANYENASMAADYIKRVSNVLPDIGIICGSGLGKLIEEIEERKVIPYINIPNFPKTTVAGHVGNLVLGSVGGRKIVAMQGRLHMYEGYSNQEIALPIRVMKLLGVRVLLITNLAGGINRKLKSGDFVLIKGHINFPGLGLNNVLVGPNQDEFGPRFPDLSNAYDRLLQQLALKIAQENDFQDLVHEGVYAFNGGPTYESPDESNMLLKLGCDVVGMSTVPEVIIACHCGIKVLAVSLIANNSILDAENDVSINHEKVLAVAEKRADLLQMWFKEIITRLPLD
# B1: SmPNP2 (purine nucleoside phosphorylase isoform 2) (Schistosoma mansoni) (protein)
# chain: T1 sequence (A0A0U3AGT1 1-287)
# notes: ORF of 287 amino acids, 6His-SUMO tag cleaved
# What was measured:
# [1] = biological target: T1, SmPNP2 (purine nucleoside phosphorylase isoform 2); experiment: crystal structure at […] Å (soaking); type: binding
# [2] = biological target: T1, SmPNP2 (purine nucleoside phosphorylase isoform 2); experiment: ITC; crystal structure at […] Å; type: binding
# [3] = biological target: T1, SmPNP2 (purine nucleoside phosphorylase isoform 2); experiment: crystal structure at […] Å, ternary complex with cytosine; type: binding
# [4] = substrate: OC[C@H]1O[C@@H](n2cnc3c(O)ncnc32)[C@H](O)[C@@H]1O; experiment: xanthine oxidase-coupled phosphorolysis kinetics (KM); type: biochemical, Schistosoma mansoni; conditions: phosphate (co-substrate)
# [5] = substrate: Nc1ncnc2c1ncn2[C@@H]1O[C@H](CO)[C@@H](O)[C@H]1O; experiment: as above; type: biochemical, Schistosoma mansoni; conditions: phosphate (co-substrate)
# purified protein = substrate: Nc1ccn([C@@H]2O[C@H](CO)[C@@H](O)[C@H]2O)c(=O)n1; experiment: purified protein; conditions: active site; direct H-bonds of base with Met221 and Glu203, ribose O5 with His259 and Tyr202
molecule,measurement,setting,value
Nc1ncnc2c1ccn2[C@@H]1O[C@H](CO)[C@@H](O)[C@H]1O [tubercidin],crystal structure at 1.95 Å (soaking),[1],"three complexes were obtained: SmPNP2–tubercidin (7-deaza-adenosine), SmPNP2–hypoxanthine and SmPNP2–adenine"
"Nc1cc[nH]c(=O)n1 [CYT, cytosine]",Kd,[2],27 µM
"O=P(O)(O)O[C@H]1O[C@H](CO)[C@@H](O)[C@H]1O [R1P, ribose-1-phosphate]","crystal structure at 1.42 Å, ternary complex with cytosine",[3],As expected the R1P binds in SmPNP2 in a similar way to that observed for SmPNP1–R1P complex
B1,Km,[4],136.4 µM
same,Vmax,[4],360 µM/min
same,kcat,[4],7 ± 0.2 s⁻¹
same,kcat/Km,[4],50600 ± 2900 M⁻¹ s⁻¹
same,Km,[5],22.3 µM
same,Vmax,[5],60 µM/min
same,kcat,[5],1.02 ± 0.02 s⁻¹
same,kcat/Km,[5],46000 ± 5200 M⁻¹ s⁻¹
same,Km,purified protein,76.3 µM
same,Vmax,purified protein,60 µM/min
same,kcat,purified protein,2 s⁻¹
same,kcat/Km,purified protein,26200 M⁻¹ s⁻¹
